Source: patent US7379820 (Pfizer, dated 2008)

T1: MBP-TRADD (full-length TRADD protein expressed as a MBP fusion) (UniProt Q15628 1-312)
T1 construct: mature; Immobilized on 96 well plates for ELISA
T1 sequence (looked up): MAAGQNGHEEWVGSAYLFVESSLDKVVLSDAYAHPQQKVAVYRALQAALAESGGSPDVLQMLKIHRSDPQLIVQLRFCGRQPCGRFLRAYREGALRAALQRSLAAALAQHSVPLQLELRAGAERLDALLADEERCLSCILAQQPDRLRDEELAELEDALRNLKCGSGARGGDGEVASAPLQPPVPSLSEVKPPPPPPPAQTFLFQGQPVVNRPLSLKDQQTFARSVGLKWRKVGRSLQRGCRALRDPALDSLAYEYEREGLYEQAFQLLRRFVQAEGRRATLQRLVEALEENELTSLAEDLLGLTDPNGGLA


target: T1, MBP-TRADD (full-length TRADD protein …); experiment: ELISA, MBP-TRADD immobilized on 96 well plates
Experimental: RIP DD binding assay. RIP DD binding to TRADD was determined by an enzyme-linked immunosorbent assay (ELISA). Ninety six well plates were coated overnight at 4° C. with 200 ng of MBP-TRADD, MBP-TNFR-1 DD, or MBP-IL1RacP (interleukin-1 receptor accessory protein) in coating buffer (25 mM MOPS pH 7.5, 150 mM NaCl, 10 mM DTT, 0.02% NaN_3). The plates were then incubated in blocking buffer (10 mM MOPS pH 7.5, 150 mM NaCl, 0.05% Tween 20, 0.1% Gelatin, 0.02% NaN_3) for one hour followed by one hour incubation with the different RIP DD proteins in binding buffer (100 mM Tris pH 7.5, 140 mM NaCl, 0.1 mM EDTA, 0.2% Triton X-100, 10 mM DTT). The plates were washed 4 times in 10 mM potassium phosphate buffer pH 7.4, 0.05% Tween 20. The bound His tagged proteins were then incubated for 30 minutes in 10 mM MOPS pH 7.5, 150 mM NaCl, 0.05% Tween 20, 0.02% NaN_3 anti-6× His biotinylated anti mouse antibody and strepavidin conjugated alkaline phosphatase. The plates were washed 4 times in 10 mM potassium phosphate buffer pH 7.4, 0.05% Tween. Tropix CDP-Star/Sapphire II solution was used for the luminescent detection of alkaline phosphatase.
Figure 4: FIGS. 4A and 4B. (A) Effect of the ionic strength on the binding of RIP-DD (30 μg/mL) to MBP-TRADD. (B) ELISA of RIP-DD binding to MBP-TRADD. MBP-TRADD was immobilized at 500 ng/well on 96 well plates. The reference at 100% is the binding of the wild type protein to MBP-TRADD. The values used for the determination of the binding percentage were obtained with ~30 μg/ml of soluble protein. Figure 4: Figure 5: FIG. 5. Sequence alignment of the death domains of FAS (SEQ ID NO:2) and RIP (SEQ ID NO:3). Identical residues and homologous residues are shaded. The helices identified from the NMR structure of FAS DD (Huang et al., 1996) are located above the sequence and the helices identified from the NMR structure of RIP DD are located below the sequence.

Binder | binding result
RIP DD E626A (other, Single point alanine mutant of the His-tagged RIP DD construct; soluble mutant) MAIFDNTTSLTDKHLDPIRENLGKHWKNCARKLGFTQSQIDEIDHDYERDGLKAKVYQMLQKWVMREGIKGATVGKLAQALHQCSRIDLLSSLIYVSQNHHHHHHH | no binding (tested: ~30 µg/ml of soluble protein)
RIP DD K625A (other, Single point alanine mutant of the His-tagged RIP DD construct) MAIFDNTTSLTDKHLDPIRENLGKHWKNCARKLGFTQSQIDEIDHDYERDGLAEKVYQMLQKWVMREGIKGATVGKLAQALHQCSRIDLLSSLIYVSQNHHHHHHH | no binding (tested: ~30 µg/ml of soluble protein)
RIP DD R603A (other, Single point alanine mutant of the His-tagged RIP DD construct; soluble mutant) MAIFDNTTSLTDKHLDPIRENLGKHWKNCAAKLGFTQSQIDEIDHDYERDGLKEKVYQMLQKWVMREGIKGATVGKLAQALHQCSRIDLLSSLIYVSQNHHHHHHH | no binding (tested: ~30 µg/ml of soluble protein)
RIP DD K627A (other, Single point alanine mutant of the His-tagged RIP DD construct) MAIFDNTTSLTDKHLDPIRENLGKHWKNCARKLGFTQSQIDEIDHDYERDGLKEAVYQMLQKWVMREGIKGATVGKLAQALHQCSRIDLLSSLIYVSQNHHHHHHH | no binding (tested: ~30 µg/ml of soluble protein)
RIP DD K599A (other, Single point alanine mutant of the His-tagged RIP DD construct) MAIFDNTTSLTDKHLDPIRENLGKHWANCARKLGFTQSQIDEIDHDYERDGLKEKVYQMLQKWVMREGIKGATVGKLAQALHQCSRIDLLSSLIYVSQNHHHHHHH | no binding (tested: ~30 µg/ml of soluble protein)
